T1: His-p47(171–270) (UniProt O35987 171-270)
T1 sequence (looked up): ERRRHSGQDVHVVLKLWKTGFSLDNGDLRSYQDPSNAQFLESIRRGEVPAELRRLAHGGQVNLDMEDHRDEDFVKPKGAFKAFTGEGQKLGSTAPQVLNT

B1: GST-tagged p47(171–270) (domain or fragment, UniProt O35987 171-270, looked up)
chain: T1 sequence (looked up)
B2: His-tagged VCIP135(744–1221) (domain or fragment, rat, UniProt Q8CF97 744-1221, looked up)
chain: TVSPSTIRDGPSSAPATPTKAPYSPTTSKEKKIRITTNDGRQSMVTLKSSTTFFELQESIAREFNIPPYLQCIRYGFPPKELMPPQAGMEKEPVPLQHGDRITIEILKGKAEGGPSTAAHSAHTVRQEEIAVTGKLSSKELQEQADKEMYSLCLLATLMGEDVWSYAKGLPHMFQQGGVFYNIMKKTMGMADGKHCTFPHLPGKTFVYNASEDRLELCVDAAGHFPIGPDVEDLVKEAVSQVRAEATTRSRESSPSHGLLKLGSGGVVKKKSEQLHNVTAFQGKGHSLGTASSNPHMDPRARETLAVRKHNTGTDFSNSSIKTEPPVFTAASSNSELIRIAPGVVTMRDGRQIDPDVVEAQRKKLQEMVSSIQASMDKHLRDQSTEQTPSDLSQRKVEAVSSSVRPGNLQTGLPESFSLTGGTENLNTETTDSRVADVLGAAFATRSKAQKENSMEEPEEMDSQDAETTNTTEPMDHS
B3: GST-tagged p47(271–370) (domain or fragment, UniProt O35987 271-370, looked up)
chain: SSPAQQAENEAKASSSILINEAEPTTNIQIRLADGGRLVQKFNHSHRISDIRLFIVDARPAMAATSFVLMTTFPNKELADENQTLKEANLLNAVIVQRLT
B4: GST-tagged p97(1–74) (domain or fragment, rat, UniProt P46462 1-74, looked up)
chain: MASGADSKGDDLSTAILKQKNRPNRLIVDEAINEDNSVVSLSQPKMDELQLFRGDTVLLKGKKRREAVCIVLSD

Assays:
[1] = biological target: T2, p97 (valosin-containing protein) (rat, UniProt P46462 1-806); test: pull-down
[2] = biological target: T2, p97 (valosin-containing protein); test: co-IP
His-p47(171–270) = biological target: T1, His-p47(171–270); test: pull-down

Row | Binder | binding result [1] | also measured
1 | B1 | binds | 
2 | B2 |  | binding result [2]: binds
3 | B3 | binds | 
4 | B4 |  | binding result (His-p47(171–270)): binds
